# Laboratory results as given in publication PMC8184782 (Nature Communications, 2021).
# Target: the molecule itself
# Experiment: non-reducing SDS-PAGE; MDFs treated with TSZ, lysed in DISC lysis buffer; loading dye without beta-mercaptoethanol, immunoblot for MLKL; intermolecular disulfide bonds stabilise the trimer
protein,measurement,value
"mixed lineage kinase domain-like (MLKL) pseudokinase, mouse, wild type, endogenous (natural protein, mouse (endogenous in MDFs), UniProt Q9D2Y4-2 1-464, looked up, after TSZ: phosphorylated at S345; K63-linked ubiquitin chains, Ub acceptor lysines K51, K77, K172 and K219, MLKL, mouse, endogenous in MDFs; Oligomers are seen only in cells treated with TNF/SM-164/z-VAD-FMK (TSZ); also called mMLKL; MLKL^WT; source: endogenous, mouse dermal fibroblasts (MDFs), in lysate or digitonin membrane fraction, after TSZ treatment) MDKLGQIIKLGQLIYEQCEKMKYCRKQCQRLGNRVHGLLQPLQRLQAQGKKNLPDDITAALGRFDEVLKEANQQIEKFSKKSHIWKFVSVGNDKILFHEVNEKLRDVWEELLLLLQVYHWNTVSDVSQPASWQQEDRQDAEEDGNENMKVILMQLQISVEEINKTLKQCSLKPTQEIPQDLQIKEIPKEHLGPPWTKLKTSKMSTIYRGEYHRSPVTIKVFNNPQAESVGIVRFTFNDEIKTMKKFDSPNILRIFGICIDQTVKPPEFSIVMEYCELGTLRELLDREKDLTMSVRSLLVLRAARGLYRLHHSETLHRNISSSSFLVAGGYQVKLAGFELSKTQNSISRTAKSTKAERSSSTIYVSPERLKNPFCLYDIKAEIYSFGIVLWEIATGKIPFEGCDSKKIRELVAEDKKQEPVGQDCPELLREIINECRAHEPSQRPSVDGILERLSAVEESTDKKV",stoichiometry N,3
